Assay results taken from the supplement of paper PMC5998384.

Legend:
HeLa Kyoto [1] = assay: thermal stability score vs G1/S (z-score of summed log2 fold changes over temperatures); higher = more thermally stable than in G1/S
HeLa Kyoto [2] = assay: solubility in G1/S (NP-40 vs SDS abundance) (log2 ratio); higher = more soluble; conditions: cell cycle stage: G1/S
HeLa Kyoto [3] = assay: solubility change mitosis vs G1/S (difference of NP-40 vs SDS log2 ratios) (log2 ratio difference); higher = more soluble in mitosis
HeLa Kyoto [4] = assay: melting temperature (median over replicates), in situ; higher = more thermally stable
[5] = cell cycle stage: early G1 (4.5 h after nocodazole release)
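Wherever melting temperature (median over replicates), in situ is given: HeLa Kyoto cells synchronized by double thymidine or nocodazole block, proteins quantified by TMT10plex mass spectrometry, three independent biological replicates.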
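Wherever solubility change mitosis vs G1/S (difference of NP-40 vs SDS log2 ratios) is given: synchronized HeLa Kyoto cells (double thymidine block for G1/S, nocodazole release for mitosis), protein amounts in NP-40 versus SDS lysates quantified by mass spectrometry, three biological replicates.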
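Wherever solubility in G1/S (NP-40 vs SDS abundance) is given: HeLa Kyoto cells arrested at G1/S by double thymidine block, proteins quantified by TMT10plex mass spectrometry in mild NP-40 versus SDS extracts, three biological replicates.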
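Wherever thermal stability score vs G1/S (z-score of summed log2 fold changes over temperatures) is given: synchronized HeLa Kyoto cells, proteins quantified by TMT10plex mass spectrometry, three biological replicates, mitosis taken 0.5 h after nocodazole release, G1/S directly after double thymidine block.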

Row | Substance | thermal stability score (HeLa Kyoto [1]; [5]) | thermal stability score (HeLa Kyoto [1]; cell cycle stage: mitosis) | solubility in G1/S (log2) (HeLa Kyoto [2]) | solubility change mitosis (log2) (HeLa Kyoto [3]) | melting temperature (HeLa Kyoto [4]; cell cycle stage: G1/S) [°C] | melting temperature (HeLa Kyoto [4]; cell cycle stage: mitosis) [°C]
1 | MNPSMKQKQEEIKENIKNSSVPRRTLKMIQPSASGSLVGRENELSAGLSKRKHRNDHLTSTTSSPGVIVPESSENKNLGGVTQESFDLMIKENPSSQYWKEVAEKRRKALYEALKENEKLHKEIEQKDNEIARLKKENKELAEVAEHVQYMAELIERLNGEPLDNFESLDNQEFDSEEETVEDSLVEDSEIGTCAEGTVSSSTDAKPCI [GMNN] | -7.44 | -7.77 | 0.46 | -0.0263 | 57.5 | 52.7
2 | METVISSDSSPAVENEHPQETPESNNSVYTSFMKSHRCYDLIPTSSKLVVFDTSLQVKKAFFALVTNGVRAAPLWDSKKQSFVGMLTITDFINILHRYYKSALVQIYELEEHKIETWREVYLQDSFKPLVCISPNASLFDAVSSLIRNKIHRLPVIDPESGNTLYILTHKRILKFLKLFITEFPKPEFMSKSLEELQIGTYANIAMVRTTTPVYVALGIFVQHRVSALPVVDEKGRVVDIYSKFDVINLAAEKTYNNLDVSVTKALQHRSHYFEGVLKCYLHETLETIINRLVEAEVHRLVVVDENDVVKGIVSLSDILQALVLTGGEKKP [PRKAG1] | 0.779 | 1.52 | 0.164 | -0.127 | 50.7 | 51.2
3 | MAPLDLDKYVEIARLCKYLPENDLKRLCDYVCDLLLEESNVQPVSTPVTVCGDIHGQFYDLCELFRTGGQVPDTNYIFMGDFVDRGYYSLETFTYLLALKAKWPDRITLLRGNHESRQITQVYGFYDECQTKYGNANAWRYCTKVFDMLTVAALIDEQILCVHGGLSPDIKTLDQIRTIERNQEIPHKGAFCDLVWSDPEDVDTWAISPRGAGWLFGAKVTNEFVHINNLKLICRAHQLVHEGYKFMFDEKLVTVWSAPNYCYRCGNIASIMVFKDVNTREPKLFRAVPDSERVIPPRTTTPYFL [PPP6C] | -1.68 | -2.31 | -0.00442 | -0.154 | 53.7 | 54.1
4 | TRIP11 | 0.295 | 1.48 | 0.34 | -0.135 | 49.1 | 49
5 | MPTVSVKRDLLFQALGRTYTDEEFDELCFEFGLELDEITSEKEIISKEQGNVKAAGASDVVLYKIDVPANRYDLLCLEGLVRGLQVFKERIKAPVYKRVMPDGKIQKLIITEETAKIRPFAVAAVLRNIKFTKDRYDSFIELQEKLHQNICRKRALVAIGTHDLDTLSGPFTYTAKRPSDIKFKPLNKTKEYTACELMNIYKTDNHLKHYLHIIENKPLYPVIYDSNGVVLSMPPIINGDHSRITVNTRNIFIECTGTDFTKAKIVLDIIVTMFSEYCENQFTVEAAEVVFPNGKSHTFPELAYRKEMVRADLINKKVGIRETPENLAKLLTRMYLKSEVIGDGNQIEIEIPPTRADIIHACDIVEDAAIAYGYNNIQMTLPKTYTIANQFPLNKLTELLRHDMAAAGFTEALTFALCSQEDIADKLGVDISATKAVHISNPKTAEFQVARTTLLPGLLKTIAANRKMPLPLKLFEISDIVIKDSNTDVGAKNYRHLCAVYYNKNPGFEIIHGLLDRIMQLLDVPPGEDKGGYVIKASEGPAFFPGRCAEIFARGQSVGKLGVLHPDVITKFELTMPCSSLEINVGPFL [FARSB] | 2.32 | 0.692 | 0.00374 | -0.031 | 50.4 | 50.2
6 | MNAAASSYPMASLYVGDLHSDVTEAMLYEKFSPAGPVLSIRVCRDMITRRSLGYAYVNFQQPADAERALDTMNFDVIKGKPIRIMWSQRDPSLRKSGVGNVFIKNLDKSIDNKALYDTFSAFGNILSCKVVCDENGSKGYAFVHFETQEAADKAIEKMNGMLLNDRKVFVGRFKSRKEREAELGAKAKEFTNVYIKNFGEEVDDESLKELFSQFGKTLSVKVMRDPNGKSKGFGFVSYEKHEDANKAVEEMNGKEISGKIIFVGRAQKKVERQAELKRKFEQLKQERISRYQGVNLYIKNLDDTIDDEKLRKEFSPFGSITSAKVMLEDGRSKGFGFVCFSSPEEATKAVTEMNGRIVGSKPLYVALAQRKEERKAHLTNQYMQRVAGMRALPANAILNQFQPAAGGYFVPAVPQAQGRPPYYTPNQLAQMRPNPRWQQGGRPQGFQGMPSAIRQSGPRPTLRHLAPTGSECPDRLAMDFGGAGAAQQGLTDSCQSGGVPTAVQNLAPRAAVAAAAPRAVAPYKYASSVRSPHPAIQPLQAPQPAVHVQGQEPLTASMLAAAPPQEQKQMLGERLFPLIQTMHSNLAGKITGMLLEIDNSELLHMLESPESLRSKVDEAVAVLQAHHAKKEAAQKVGAVAAATS [PABPC4] | -1.92 | -1.27 | 0.0374 | 0.0456 | 50.3 | 49.6
7 | MAAVAGSGAAAAPSSLLLVVGSEFGSPGLLTYVLEELERGIRSWDVDPGVCNLDEQLKVFVSRHSATFSSIVKGQRSLHHRGDNLETLVLLNPSDKSLYDELRNLLLDPASHKLLVLAGPCLEETGELLLQTGGFSPHHFLQVLKDREIRDILATTPPPVQPPILTITCPTFGDWAQLAPAVPGLQGALRLQLRLNPPAQLPNSEGLCEFLEYVAESLEPPSPFELLEPPTSGGFLRLGRPCCYIFPGGLGDAAFFAVNGFTVLVNGGSNPKSSFWKLVRHLDRVDAVLVTHPGADSLPGLNSLLRRKLAERSEVAAGGGSWDDRLRRLISPNLGVVFFNACEAASRLARGEDEAELALSLLAQLGITPLPLSRGPVPAKPTVLFEKMGVGRLDMYVLHPPSAGAERTLASVCALLVWHPAGPGEKVVRVLFPGCTPPACLLDGLVRLQHLRFLREPVVTPQDLEGPGRAESKESVGSRDSSKREGLLATHPRPGQERPGVARKEPARAEAPRKTEKEAKTPRELKKDPKPSVSRTQPREVRRAASSVPNLKKTNAQAAPKPRKAPSTSHSGFPPVANGPRSPPSLRCGEASPPSAACGSPASQLVATPSLELGPIPAGEEKALELPLAASSIPRPRTPSPESHRSPAEGSERLSLSPLRGGEAGPDASPTVTTPTVTTPSLPAEVGSPHSTEVDESLSVSFEQVLPPSAPTSEAGLSLPLRGPRARRSASPHDVDLCLVSPCEFEHRKAVPMAPAPASPGSSNDSSARSQERAGGLGAEETPPTSVSESLPTLSDSDPVPLAPGAADSDEDTEGFGVPRHDPLPDPLKVPPPLPDPSSICMVDPEMLPPKTARQTENVSRTRKPLARPNSRAAAPKATPVAAAKTKGLAGGDRASRPLSARSEPSEKGGRAPLSRKSSTPKTATRGPSGSASSRPGVSATPPKSPVYLDLAYLPSGSSAHLVDEEFFQRVRALCYVISGQDQRKEEGMRAVLDALLASKQHWDRDLQVTLIPTFDSVAMHTWYAETHARHQALGITVLGSNSMVSMQDDAFPACKVEF [MAP1S] | -0.227 | -0.265 | 0.287 | -0.216 | 50.4 | 49.8
